One block for each molecule: values may come before it.
How the values were obtained:
ChlR1 (DDX11), ChlR1-WT = target: T1, ChlR1 (DDX11), ChlR1-WT (Homo sapiens, UniProt Q96FC9); assay: nitrocellulose filter-binding (dot blot) assay
T1 sequence (Q96FC9 1-906 isoform Q96FC9-2): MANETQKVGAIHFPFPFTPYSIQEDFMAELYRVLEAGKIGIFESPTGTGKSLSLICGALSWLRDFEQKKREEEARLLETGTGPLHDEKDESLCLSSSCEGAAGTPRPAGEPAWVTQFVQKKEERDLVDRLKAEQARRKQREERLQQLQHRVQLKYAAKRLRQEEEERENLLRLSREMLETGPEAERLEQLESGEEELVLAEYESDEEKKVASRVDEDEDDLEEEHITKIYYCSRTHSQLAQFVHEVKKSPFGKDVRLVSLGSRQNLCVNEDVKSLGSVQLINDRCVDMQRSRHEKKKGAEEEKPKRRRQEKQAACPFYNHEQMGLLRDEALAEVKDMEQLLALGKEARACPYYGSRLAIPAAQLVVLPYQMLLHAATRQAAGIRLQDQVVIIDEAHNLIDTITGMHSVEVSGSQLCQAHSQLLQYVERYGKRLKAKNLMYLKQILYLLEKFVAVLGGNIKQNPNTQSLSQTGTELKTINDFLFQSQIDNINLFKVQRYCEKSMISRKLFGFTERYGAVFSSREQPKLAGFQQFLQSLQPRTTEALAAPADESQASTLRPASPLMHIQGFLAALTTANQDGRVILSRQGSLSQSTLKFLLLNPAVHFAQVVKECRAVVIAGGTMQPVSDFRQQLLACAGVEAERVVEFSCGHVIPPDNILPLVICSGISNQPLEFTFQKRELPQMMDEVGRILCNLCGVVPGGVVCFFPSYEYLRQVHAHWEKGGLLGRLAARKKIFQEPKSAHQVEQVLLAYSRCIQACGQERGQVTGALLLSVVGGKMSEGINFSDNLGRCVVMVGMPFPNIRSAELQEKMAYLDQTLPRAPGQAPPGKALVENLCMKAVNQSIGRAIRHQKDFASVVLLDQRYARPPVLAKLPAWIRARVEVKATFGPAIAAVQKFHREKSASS

ChlR1 (DDX11), = target: T2, ChlR1 (DDX11), (Homo sapiens, UniProt Q96FC9, Q23A); assay: nitrocellulose filter-binding (dot blot) assay
T2 sequence (Q96FC9 1-906 isoform Q96FC9-2 Q23A): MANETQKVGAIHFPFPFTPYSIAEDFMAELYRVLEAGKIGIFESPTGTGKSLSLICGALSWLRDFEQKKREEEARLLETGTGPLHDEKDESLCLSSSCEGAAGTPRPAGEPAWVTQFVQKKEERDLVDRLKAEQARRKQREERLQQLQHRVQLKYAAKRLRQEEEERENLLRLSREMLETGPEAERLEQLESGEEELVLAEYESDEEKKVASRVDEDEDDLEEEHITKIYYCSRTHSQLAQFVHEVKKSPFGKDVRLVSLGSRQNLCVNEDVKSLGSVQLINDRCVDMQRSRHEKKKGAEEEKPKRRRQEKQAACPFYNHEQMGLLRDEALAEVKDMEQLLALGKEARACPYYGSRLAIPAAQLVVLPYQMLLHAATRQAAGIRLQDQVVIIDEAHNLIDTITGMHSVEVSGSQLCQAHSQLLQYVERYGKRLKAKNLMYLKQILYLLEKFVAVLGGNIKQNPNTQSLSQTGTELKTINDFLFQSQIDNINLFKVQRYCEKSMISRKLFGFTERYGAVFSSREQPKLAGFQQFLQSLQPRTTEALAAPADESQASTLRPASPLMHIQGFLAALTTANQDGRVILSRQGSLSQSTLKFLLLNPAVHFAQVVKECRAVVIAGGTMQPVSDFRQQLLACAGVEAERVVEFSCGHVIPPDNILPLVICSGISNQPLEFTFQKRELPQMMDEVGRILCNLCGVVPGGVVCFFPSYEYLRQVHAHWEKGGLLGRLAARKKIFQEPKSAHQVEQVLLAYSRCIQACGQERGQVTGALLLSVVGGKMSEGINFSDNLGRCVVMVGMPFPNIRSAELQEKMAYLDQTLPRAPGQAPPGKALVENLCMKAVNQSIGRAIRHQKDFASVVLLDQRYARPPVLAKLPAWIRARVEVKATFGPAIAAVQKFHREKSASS

[1] = substrate: Nc1ncnc2c1ncn2[C@@H]1O[C@H](COP(=O)(O)OP(=O)(O)OP(=O)(O)O)[C@@H](O)[C@H]1O; assay: [γ-32P]ATP hydrolysis, thin-layer chromatography; assay type: biochemical, Homo sapiens; settings: 2.1 nM M13mp18 ssDNA, ATP 31-4000 μM, 1 mM Mg acetate, pH 7.5, 37 °C, 30 min, kcat measured separately at 8.5 mM ATP
ChlR1-Q23A [2] = target: T3, ChlR1-Q23A (Homo sapiens, UniProt Q96FC9-2 1-906, Q23A); assay: fluorescence anisotropy; apparent Kd, no ATP, 21 C, 10 nM DNA; EMSA: 40 mM Tris-HCl pH 7.4, 25 mM KCl, 5 mM MgCl2, 2 mM DTT, 2% glycerol, 100 ng/uL BSA, no ATP, 0.5 nM DNA, room temp 30 min; anisotropy: same buffer, 21 C; filter binding: 25 mM Tris-HCl pH 7.5, 25 mM KOAc, 1 mM Mg(OAc)2, 1 mM DTT, 100 ug/mL BSA, 37 C 30 min; settings: protein: recombinant; tags: FLAG; fork, 19 bp duplex; 5' ssDNA tail 26 nt (DC26) and 3' ssDNA tail 25 nt (TSTEM25)
T3 sequence: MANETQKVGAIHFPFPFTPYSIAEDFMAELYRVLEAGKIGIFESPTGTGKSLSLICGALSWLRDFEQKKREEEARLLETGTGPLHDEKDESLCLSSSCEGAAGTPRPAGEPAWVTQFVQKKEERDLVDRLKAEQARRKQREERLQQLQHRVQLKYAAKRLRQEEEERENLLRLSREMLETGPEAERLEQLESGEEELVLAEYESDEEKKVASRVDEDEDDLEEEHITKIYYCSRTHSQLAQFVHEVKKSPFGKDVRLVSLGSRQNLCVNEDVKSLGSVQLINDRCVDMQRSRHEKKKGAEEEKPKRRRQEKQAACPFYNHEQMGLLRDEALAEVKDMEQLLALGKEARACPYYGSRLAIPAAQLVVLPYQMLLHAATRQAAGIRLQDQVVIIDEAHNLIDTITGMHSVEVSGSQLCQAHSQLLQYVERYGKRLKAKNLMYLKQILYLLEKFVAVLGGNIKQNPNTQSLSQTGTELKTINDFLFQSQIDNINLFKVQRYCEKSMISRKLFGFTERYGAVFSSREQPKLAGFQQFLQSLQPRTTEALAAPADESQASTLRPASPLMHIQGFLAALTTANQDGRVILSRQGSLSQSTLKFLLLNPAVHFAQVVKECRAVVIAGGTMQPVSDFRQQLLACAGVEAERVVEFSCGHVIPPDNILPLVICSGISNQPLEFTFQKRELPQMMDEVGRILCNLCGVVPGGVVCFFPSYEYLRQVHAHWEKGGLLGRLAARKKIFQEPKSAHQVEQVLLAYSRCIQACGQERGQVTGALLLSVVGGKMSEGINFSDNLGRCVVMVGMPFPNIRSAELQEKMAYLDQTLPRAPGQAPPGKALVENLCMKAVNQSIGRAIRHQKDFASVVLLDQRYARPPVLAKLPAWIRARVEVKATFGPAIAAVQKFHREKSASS

ChlR1-WT [3] = target: T4, ChlR1-WT (Homo sapiens, UniProt Q96FC9-2 1-906); assay: as above; settings: protein: recombinant; tags: FLAG; fork, 19 bp duplex; 5' ssDNA tail 26 nt (DC26) and 3' ssDNA tail 25 nt (TSTEM25)
T4 sequence: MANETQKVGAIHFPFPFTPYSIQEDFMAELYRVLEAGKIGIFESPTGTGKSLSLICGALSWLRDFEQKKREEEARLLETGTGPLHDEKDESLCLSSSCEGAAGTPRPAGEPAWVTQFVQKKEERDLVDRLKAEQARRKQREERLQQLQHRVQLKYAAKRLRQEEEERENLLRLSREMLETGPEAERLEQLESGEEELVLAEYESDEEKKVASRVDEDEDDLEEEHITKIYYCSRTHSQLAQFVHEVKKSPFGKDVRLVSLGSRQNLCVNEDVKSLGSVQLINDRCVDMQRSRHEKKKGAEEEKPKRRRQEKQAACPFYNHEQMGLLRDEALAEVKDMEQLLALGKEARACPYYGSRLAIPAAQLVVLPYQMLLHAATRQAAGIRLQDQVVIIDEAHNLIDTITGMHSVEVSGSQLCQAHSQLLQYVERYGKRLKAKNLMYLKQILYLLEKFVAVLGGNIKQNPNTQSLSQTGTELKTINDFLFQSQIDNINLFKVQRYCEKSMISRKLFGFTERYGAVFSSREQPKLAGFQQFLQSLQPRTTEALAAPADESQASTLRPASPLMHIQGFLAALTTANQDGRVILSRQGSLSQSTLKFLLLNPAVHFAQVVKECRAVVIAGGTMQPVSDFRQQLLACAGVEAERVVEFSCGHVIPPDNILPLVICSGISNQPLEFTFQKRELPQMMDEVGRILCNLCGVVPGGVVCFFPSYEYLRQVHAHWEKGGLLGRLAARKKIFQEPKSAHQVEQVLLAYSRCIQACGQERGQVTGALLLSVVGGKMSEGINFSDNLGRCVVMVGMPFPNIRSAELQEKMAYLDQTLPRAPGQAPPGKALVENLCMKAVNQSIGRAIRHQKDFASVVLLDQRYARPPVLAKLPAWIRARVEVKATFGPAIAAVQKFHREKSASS

ChlR1-Q23A [4] = target: T3, ChlR1-Q23A; assay: filter binding; 37 C, 1 mM Mg(OAc)2; EMSA: 40 mM Tris-HCl pH 7.4, 25 mM KCl, 5 mM MgCl2, 2 mM DTT, 2% glycerol, 100 ng/uL BSA, no ATP, 0.5 nM DNA, room temp 30 min; anisotropy: same buffer, 21 C; filter binding: 25 mM Tris-HCl pH 7.5, 25 mM KOAc, 1 mM Mg(OAc)2, 1 mM DTT, 100 ug/mL BSA, 37 C 30 min; settings: protein: recombinant; tags: FLAG; label: 32P (5' end); fork, 19 bp duplex; 5' ssDNA tail 26 nt (DC26) and 3' ssDNA tail 25 nt (TSTEM25)
ChlR1-WT [5] = target: T4, ChlR1-WT; assay: as above; settings: protein: recombinant; tags: FLAG; label: 32P (5' end); fork, 19 bp duplex; 5' ssDNA tail 26 nt (DC26) and 3' ssDNA tail 25 nt (TSTEM25)

Kd (ChlR1 (DDX11), ChlR1-WT): 51.8 nM
Kd (ChlR1 (DDX11),): 43.8 nM
Molecule: Nc1ncnc2c1ncn2[C@@H]1O[C@H](COP(=O)(O)OP(=O)(O)OP(=O)(O)O)[C@@H](O)[C@H]1O [ATP]

B1: ChlR1 (DDX11), ChlR1-WT (Homo sapiens) (protein)
chain: MANETQKVGAIHFPFPFTPYSIQEDFMAELYRVLEAGKIGIFESPTGTGKSLSLICGALSWLRDFEQKKREEEARLLETGTGPLHDEKDESLCLSSSCEGAAGTPRPAGEPAWVTQFVQKKEERDLVDRLKAEQARRKQREERLQQLQHRVQLKYAAKRLRQEEEERENLLRLSREMLETGPEAERLEQLESGEEELVLAEYESDEEKKVASRVDEDEDDLEEEHITKIYYCSRTHSQLAQFVHEVKKSPFGKDVRLVSLGSRQNLCVNEDVKSLGSVQLINDRCVDMQRSRHEKKKGAEEEKPKRRRQEKQAACPFYNHEQMGLLRDEALAEVKDMEQLLALGKEARACPYYGSRLAIPAAQLVVLPYQMLLHAATRQAAGIRLQDQVVIIDEAHNLIDTITGMHSVEVSGSQLCQAHSQLLQYVERYGKRLKAKNLMYLKQILYLLEKFVAVLGGNIKQNPNTQSLSQTGTELKTINDFLFQSQIDNINLFKVQRYCEKSMISRKLFGFTERYGAVFSSREQPKLAGFQQFLQSLQPRTTEALAAPADESQASTLRPASPLMHIQGFLAALTTANQDGRVILSRQGSLSQSTLKFLLLNPAVHFAQVVKECRAVVIAGGTMQPVSDFRQQLLACAGVEAERVVEFSCGHVIPPDNILPLVICSGISNQPLEFTFQKRELPQMMDEVGRILCNLCGVVPGGVVCFFPSYEYLRQVHAHWEKGGLLGRLAARKKIFQEPKSAHQVEQVLLAYSRCIQACGQERGQVTGALLLSVVGGKMSEGINFSDNLGRCVVMVGMPFPNIRSAELQEKMAYLDQTLPRAPGQAPPGKALVENLCMKAVNQSIGRAIRHQKDFASVVLLDQRYARPPVLAKLPAWIRARVEVKATFGPAIAAVQKFHREKSASS
Km [1]: 415.7 ± 58.4 µM
kcat [1]: 1073.3 ± 46.7 s⁻¹

B2: Forked duplex (DC26/TSTEM25), fluorescein (dsDNA)
DNA 1: TTTTTTTTTTTTTTTTTTTTTTCCCAGTAAAACGACGGCCAGTGC
DNA 2: GCACTGGCCGTCGTTTTACGGTCGTGACTGGGAAAACCCTGGCG
Kd (ChlR1-Q23A [2]): 1000 nM
Kd (ChlR1-WT [3]): 520 nM

B3: Forked duplex (DC26/TSTEM25) (dsDNA)
DNA 1: TTTTTTTTTTTTTTTTTTTTTTCCCAGTAAAACGACGGCCAGTGC
DNA 2: GCACTGGCCGTCGTTTTACGGTCGTGACTGGGAAAACCCTGGCG
Kd (ChlR1-Q23A [4]): 398 nM
Kd (ChlR1-WT [5]): 106 nM
